Source: patent publication US20140363428A1 (Chugai, published 2014)

Experiments:
soluble human FcRn [1] = molecular target: T1, soluble human FcRn (human, UniProt P55899 24-297; P61769 21-119); test: SPR (Biacore), pH 7.0
T1 construct: Heterodimer of alpha chain and beta2-microglobulin; also called hFcRn

soluble human FcRn [2] = molecular target: T1, soluble human FcRn; test: SPR (Biacore), pH 7.0, 25 C;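 also: antibodies captured on a protein L-coated CM4 chip with human FcRn injected as analyte, KD obtained from ka and kd fitted to sensorgrams, in sodium phosphate buffer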
Method: An appropriate amount of protein L (ACTIGEN) was immobilized onto Sensor chip CM4 (GE Healthcare) by the amino coupling method, and the chip was allowed to capture an antibody of interest. Then, diluted FcRn solutions and running buffer (as a reference solution) were injected to allow human FcRn to interact with the antibody captured on the sensor chip. The running buffer used comprised 50 mmol/l sodium phosphate, 150 mmol/l NaCl, and 0.05% (w/v) Tween20 (pH 7.0). FcRn was diluted using each buffer. The chip was regenerated using 10 mmol/l glycine-HCl (pH 1.5). Assays were carried out exclusively at 25 degrees C. The association rate constant ka (1/Ms) and dissociation rate constant kd (1/s), both of which are kinetic parameters, were calculated based on the sensorgrams obtained in the assays, and KD (M) of each antibody for human FcRn was determined from these values. Each parameter was calculated using Biacore T100 Evaluation Software (GE Healthcare).

Kd (soluble human FcRn [1]) [nM]	Kd (soluble human FcRn [2]) [nM]	Binder
91	91	IgG1-F1370 (antibody) heavy: QVQLQESGPGLVKPSETLSLTCAVSGHSISHDHAWSWVRQPPGEGLEWIGFISYSGITNYNPSLQGRVTISRDNSKNTLYLQMNSLRAEDTAVYYCARSLARTTAMDYWGEGTLVTVSSASTKGPSVFPLAPSSKSTSGGTAALGCLVKDYFPEPVTVSWNSGALTSGVHTFPAVLQSSGLYSLSSVVTVPSSSLGTQTYICNVNHKPSNTKVDKKVEPKSCDKTHTCPPCPAPELRGGPKVFLFPPKPKDTLYITREPEVTCVVVDVSHEDPEVKFNWYVDGVEVHNAKTKPREEQYNSTYRVVSVLTVLHQDWLNGKEYKCKVSNKALPAPIEKTISKAKGQPREPQVYTLPPSRDELTKNQVSLTCLVKGFYPSDIAVEWESNGQPENNYKTTPPVLDSDGSFFLYSKLTVDKSRWQQGNVFSCSVMHEALDYHVTKKELSLSP light: not shown
–	19	IgG1-F1425 (antibody) heavy: QVQLQESGPGLVKPSETLSLTCAVSGHSISHDHAWSWVRQPPGEGLEWIGFISYSGITNYNPSLQGRVTISRDNSKNTLYLQMNSLRAEDTAVYYCARSLARTTAMDYWGEGTLVTVSSASTKGPSVFPLAPSSKSTSGGTAALGCLVKDYFPEPVTVSWNSGALTSGVHTFPAVLQSSGLYSLSSVVTVPSSSLGTQTYICNVNHKPSNTKVDKKVEPKSCDKTHTCPPCPAPELRGGPKVFLFPPKPKDTLYISREPEVTCVVVDVSHEDPEVKFNWYVDGVEVHNAKTKPREEQYNSTYRVDSVLTPLHQDWLNGKEYKCKVSNKALPAPIEKTISKAKGQPREPQVYTLPPSRDELTKNQVSLTCLVKGFYPSDIAVEWESNGQPENNYKTTPPVLDSDGSFFLYSKLTVDKSRWQQGNVFSCSVMHEALDYHVTRKELSLSP light: not shown
–	16	IgG1-F1423 (antibody) heavy: QVQLQESGPGLVKPSETLSLTCAVSGHSISHDHAWSWVRQPPGEGLEWIGFISYSGITNYNPSLQGRVTISRDNSKNTLYLQMNSLRAEDTAVYYCARSLARTTAMDYWGEGTLVTVSSASTKGPSVFPLAPSSKSTSGGTAALGCLVKDYFPEPVTVSWNSGALTSGVHTFPAVLQSSGLYSLSSVVTVPSSSLGTQTYICNVNHKPSNTKVDKKVEPKSCDKTHTCPPCPAPELRGGPKVFLFPPKPKDTLYISREPEVTCVVVDVSHEDPEVKFNWYVDGVEVHNAKTKPREEQYNSTYRDVSVLTPLHQDWLNGKEYKCKVSNKALPAPIEKTISKAKGQPREPQVYTLPPSRDELTKNQVSLTCLVKGFYPSDIAVEWESNGQPENNYKTTPPVLDSDGSFFLYSKLTVDKSRWQQGNVFSCSVMHEALDYHVTRKELSLSP light: not shown
–	18	IgG1-F1426 (antibody) heavy: QVQLQESGPGLVKPSETLSLTCAVSGHSISHDHAWSWVRQPPGEGLEWIGFISYSGITNYNPSLQGRVTISRDNSKNTLYLQMNSLRAEDTAVYYCARSLARTTAMDYWGEGTLVTVSSASTKGPSVFPLAPSSKSTSGGTAALGCLVKDYFPEPVTVSWNSGALTSGVHTFPAVLQSSGLYSLSSVVTVPSSSLGTQTYICNVNHKPSNTKVDKKVEPKSCDKTHTCPPCPAPELRGGPKVFLFPPKPKDTLYISREPEVTCVVVDVSHEDPEVKFNWYVDGVEVHNAKTKPREEQYNSTYRVESVLTPLHQDWLNGKEYKCKVSNKALPAPIEKTISKAKGQPREPQVYTLPPSRDELTKNQVSLTCLVKGFYPSDIAVEWESNGQPENNYKTTPPVLDSDGSFFLYSKLTVDKSRWQQGNVFSCSVMHEALDYHVTRKELSLSP light: not shown
–	16	IgG1-F1424 (antibody) heavy: QVQLQESGPGLVKPSETLSLTCAVSGHSISHDHAWSWVRQPPGEGLEWIGFISYSGITNYNPSLQGRVTISRDNSKNTLYLQMNSLRAEDTAVYYCARSLARTTAMDYWGEGTLVTVSSASTKGPSVFPLAPSSKSTSGGTAALGCLVKDYFPEPVTVSWNSGALTSGVHTFPAVLQSSGLYSLSSVVTVPSSSLGTQTYICNVNHKPSNTKVDKKVEPKSCDKTHTCPPCPAPELRGGPKVFLFPPKPKDTLYISREPEVTCVVVDVSHEDPEVKFNWYVDGVEVHNAKTKPREEQYNSTYREVSVLTPLHQDWLNGKEYKCKVSNKALPAPIEKTISKAKGQPREPQVYTLPPSRDELTKNQVSLTCLVKGFYPSDIAVEWESNGQPENNYKTTPPVLDSDGSFFLYSKLTVDKSRWQQGNVFSCSVMHEALDYHVTRKELSLSP light: not shown
–	15	IgG1-F1428 (antibody) heavy: QVQLQESGPGLVKPSETLSLTCAVSGHSISHDHAWSWVRQPPGEGLEWIGFISYSGITNYNPSLQGRVTISRDNSKNTLYLQMNSLRAEDTAVYYCARSLARTTAMDYWGEGTLVTVSSASTKGPSVFPLAPSSKSTSGGTAALGCLVKDYFPEPVTVSWNSGALTSGVHTFPAVLQSSGLYSLSSVVTVPSSSLGTQTYICNVNHKPSNTKVDKKVEPKSCDKTHTCPPCPAPELRGGPKVFLFPPKPKDTLYISREPEVTCVVVDVSHEDPEVKFNWYVDGVEVHNAKTKPREEQYNSTYRVVEVLTPLHQDWLNGKEYKCKVSNKALPAPIEKTISKAKGQPREPQVYTLPPSRDELTKNQVSLTCLVKGFYPSDIAVEWESNGQPENNYKTTPPVLDSDGSFFLYSKLTVDKSRWQQGNVFSCSVMHEALDYHVTRKELSLSP light: not shown
–	32	IgG1-F1421 (antibody) heavy: QVQLQESGPGLVKPSETLSLTCAVSGHSISHDHAWSWVRQPPGEGLEWIGFISYSGITNYNPSLQGRVTISRDNSKNTLYLQMNSLRAEDTAVYYCARSLARTTAMDYWGEGTLVTVSSASTKGPSVFPLAPSSKSTSGGTAALGCLVKDYFPEPVTVSWNSGALTSGVHTFPAVLQSSGLYSLSSVVTVPSSSLGTQTYICNVNHKPSNTKVDKKVEPKSCDKTHTCPPCPAPELLGGPSVFLFPPKPKDTLMISRTPEVTCVVVDVSHEDPEVKFNWYVDGVEVHNAKTKPREEQYNSTYRVVSVLTPLHQDWLNGKEYKCKVSNKALPAPIEKTISKAKGQPREPQVYTLPPSRDELTKNQVSLTCLVKGFYPSDIAVEWESNGQPENNYKTTPPVLDSDGSFFLYSKLTVDKSRWQQGNVFSCSVLHEALHWHYTQKSLSLSP light: not shown
–	45	IgG1-F1433 (antibody) heavy: QVQLQESGPGLVKPSETLSLTCAVSGHSISHDHAWSWVRQPPGEGLEWIGFISYSGITNYNPSLQGRVTISRDNSKNTLYLQMNSLRAEDTAVYYCARSLARTTAMDYWGEGTLVTVSSASTKGPSVFPLAPSSKSTSGGTAALGCLVKDYFPEPVTVSWNSGALTSGVHTFPAVLQSSGLYSLSSVVTVPSSSLGTQTYICNVNHKPSNTKVDKKVEPKSCDKTHTCPPCPAPELRGGPKVFLFPPKPKDTLYISREPEVTCVVVDVSHEDPEVKFNWYVDGVEVHNAKTKPREEQYNSTYRVVSVLDPLHQDWLNGKEYKCKVSNKALPAPIEKTISKAKGQPREPQVYTLPPSRDELTKNQVSLTCLVKGFYPSDIAVEWESNGQPENNYKTTPPVLDSDGSFFLYSKLTVDKSRWQQGNVFSCSVMHEALDYHVTRKELSLSP light: not shown
–	36	IgG1-F1434 (antibody) heavy: QVQLQESGPGLVKPSETLSLTCAVSGHSISHDHAWSWVRQPPGEGLEWIGFISYSGITNYNPSLQGRVTISRDNSKNTLYLQMNSLRAEDTAVYYCARSLARTTAMDYWGEGTLVTVSSASTKGPSVFPLAPSSKSTSGGTAALGCLVKDYFPEPVTVSWNSGALTSGVHTFPAVLQSSGLYSLSSVVTVPSSSLGTQTYICNVNHKPSNTKVDKKVEPKSCDKTHTCPPCPAPELRGGPKVFLFPPKPKDTLYISREPEVTCVVVDVSHEDPEVKFNWYVDGVEVHNAKTKPREEQYNSTYRVVSVLEPLHQDWLNGKEYKCKVSNKALPAPIEKTISKAKGQPREPQVYTLPPSRDELTKNQVSLTCLVKGFYPSDIAVEWESNGQPENNYKTTPPVLDSDGSFFLYSKLTVDKSRWQQGNVFSCSVMHEALDYHVTRKELSLSP light: not shown
–	75	IgG1-F1418 (antibody) heavy: QVQLQESGPGLVKPSETLSLTCAVSGHSISHDHAWSWVRQPPGEGLEWIGFISYSGITNYNPSLQGRVTISRDNSKNTLYLQMNSLRAEDTAVYYCARSLARTTAMDYWGEGTLVTVSSASTKGPSVFPLAPSSKSTSGGTAALGCLVKDYFPEPVTVSWNSGALTSGVHTFPAVLQSSGLYSLSSVVTVPSSSLGTQTYICNVNHKPSNTKVDKKVEPKSCDKTHTCPPCPAPELRGGPKVFLFPPKPKDTLYITREPEVTCVVVDVSHEDPEVKFNWYVDGVEVHNAKTKPREEQYNSTYRVVSVLTVLHQDWLNGKEYKCKVSNKALPAPIEKTISKAKGQPREPQVYTLPPSRDELTKNQVSLTCLVKGFYPSDIAVEWESNGQPENNYKTTPPVLDSDGSFFLYSKLTVDKSRWQQGNVFSCSVMHEALDWHVTRKELSLSP light: not shown
–	31	IgG1-F1430 (antibody) heavy: QVQLQESGPGLVKPSETLSLTCAVSGHSISHDHAWSWVRQPPGEGLEWIGFISYSGITNYNPSLQGRVTISRDNSKNTLYLQMNSLRAEDTAVYYCARSLARTTAMDYWGEGTLVTVSSASTKGPSVFPLAPSSKSTSGGTAALGCLVKDYFPEPVTVSWNSGALTSGVHTFPAVLQSSGLYSLSSVVTVPSSSLGTQTYICNVNHKPSNTKVDKKVEPKSCDKTHTCPPCPAPELRGGPKVFLFPPKPKDTLYISREPEVTCVVVDVSHEDPEVKFNWYVDGVEVHNAKTKPREEQYNSTYRVVSELTPLHQDWLNGKEYKCKVSNKALPAPIEKTISKAKGQPREPQVYTLPPSRDELTKNQVSLTCLVKGFYPSDIAVEWESNGQPENNYKTTPPVLDSDGSFFLYSKLTVDKSRWQQGNVFSCSVMHEALDYHVTRKELSLSP light: not shown
–	19	IgG1-F1422 (antibody) heavy: QVQLQESGPGLVKPSETLSLTCAVSGHSISHDHAWSWVRQPPGEGLEWIGFISYSGITNYNPSLQGRVTISRDNSKNTLYLQMNSLRAEDTAVYYCARSLARTTAMDYWGEGTLVTVSSASTKGPSVFPLAPSSKSTSGGTAALGCLVKDYFPEPVTVSWNSGALTSGVHTFPAVLQSSGLYSLSSVVTVPSSSLGTQTYICNVNHKPSNTKVDKKVEPKSCDKTHTCPPCPAPELRGGPKVFLFPPKPKDTLYISREPEVTCVVVDVSHEDPEVKFNWYVDGVEVHNAKTKPREEQYNSTYRVVSVLTPLHQDWLNGKEYKCKVSNKALPAPIEKTISKAKGQPREPQVYTLPPSRDELTKNQVSLTCLVKGFYPSDIAVEWESNGQPENNYKTTPPVLDSDGSFFLYSKLTVDKSRWQQGNVFSCSVMHEALDYHVTRKELSLSP light: not shown
